From article PMC11883000, “Structure-function relationship of ASH1L and histone H3K36 and H3K4 methylation” (Nature Communications, 2025)
Ends that are not written are not given here. Me2 = dimethylation (dimethyl-lysine)

B1: histone H3K4me0 (unmodified) peptide (aa 1-12 of H3) (peptide, UniProt P68431 2-13, looked up)
peptide: ARTKQTARKSTG
notes: histone H3, residues 1-12
B2: histone H3K4me1 peptide (aa 1-12 of H3) (peptide, UniProt P68431 2-13, looked up)
peptide: ARTK(Me)QTARKSTG
notes: histone H3, residues 1-12
B3: histone H3K4me2 peptide (aa 1-15 of H3) (peptide, UniProt P68431 2-16, looked up)
peptide: ARTK(Me2)QTARKSTGGKA
notes: histone H3, residues 1-15

Experiments:
[1] = target: T1, ASH1L plant homeodomain (PHD) finger, wild type (aa 2579-2629) (human, UniProt Q9NR48 2579-2629); assay: NMR titration; 1H,15N HSQC chemical shift perturbation; unlabelled ligand (histone peptide or ASH1LSET) added to 0.1-0.2 mM 15N-labelled protein; 298 K; 25 mM Tris pH 7.5, 150 mM NaCl, 5 mM DTT; conditions: both partners purified
T1 construct: ASH1L, human, PHD finger, aa 2579-2629; 15N-labelled for NMR; also called ASH1LPHD; ASH1L PHD; source: E. coli BL21 or Rosetta2 (DE3) pLysS, purified (glutathione agarose, SEC)

[2] = target: T2, ASH1L tandem bromodomain-PHD finger (aa 2436-2638) (human, UniProt Q9NR48 2436-2638); assay: NMR solution structure; 0.5 mM ASH1L_(BD-PHD) with H3K4me2 peptide (aa 1-15); 298 K; 200 mM sodium phosphate pH 6.3, 5 mM DTT; conditions: both partners purified
T2 construct: ASH1L, human, bromodomain and PHD finger, aa 2436-2638 (NMR structure sample); 13C/15N-labelled and 75% deuterated; The protein expression section lists ASH1L_(BD-PHD) as aa 2430-2629 (GST fusion, E. coli); the NMR structure section gives aa 2436-2638; also called ASH1L_(BD-PHD)

Binder	Kd [1] [µM]	binding result [2]
B1	1900	–
B2	119	–
B3	–	binds
